Laboratory results reported in PMC5496915, “Interactions between LHX3- and ISL1-family LIM-homeodomain transcription factors are conserved in Caenorhabditis elegans” (Scientific Reports, 2017).

Biological target: T1, CEH-14_(LIM1+2) as it stands in the tethered CEH-14–LIM-7 complex (C. elegans, UniProt P20271 42-168)
T1 construct: CEH-14, C. elegans, tandem LIM domains LIM1+2, residues 42-168; Joined on one chain with m29 through an 11-residue Gly/Ser linker; the whole chain is m27; also called LIM domains from CEH-14
T1 sequence (looked up): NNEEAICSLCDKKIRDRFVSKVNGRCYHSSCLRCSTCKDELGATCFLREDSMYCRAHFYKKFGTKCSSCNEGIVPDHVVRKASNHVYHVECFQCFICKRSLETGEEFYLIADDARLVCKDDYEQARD
Assay: SAXS; tethered complex on one chain, 5.2 mg/mL, 50 mM Tris, 100 mM NaCl, 5 mM TCEP pH 8.0 (the legend says 20 mM Tris pH 8.0, 150 mM NaCl, 1 mM TCEP), 10 °C; low-resolution shape restoration
Settings: both partners purified

B1: LIM-7LID as it stands in the tethered CEH-14–LIM-7 complex (domain or fragment, C. elegans)
chain: GIGPLMVQPATPHIDNTLGGPIDIQHFAQW
notes: Joined on one chain with m28 through an 11-residue Gly/Ser linker; the whole chain is m27; also called LID from LIM-7
- binding result: binds
